“Also recorded” adds a separate entry of the source.
B1: Wnt-1: caudalizing factor (Peprotech 50 ng/ml) (protein, UniProt P04628 28-370, looked up)
Proto-oncogene Wnt-1: ANSSGRWWGIVNVASSTNLLTDSKSLQLVLEPSLQLLSRKQRRLIRQNPGILHSVSGGLQSAVRECKWQFRNRRWNCPTAPGPHLFGKIVNRGCRETAFIFAITSAGVTHSVARSCSEGSIESCTCDYRRRGPGGPDWHWGGCSDNIDFGRLFGREFVDSGEKGRDLRFLMNLHNNEAGRTTVFSEMRQECKCHGMSGSCTVRTCWMRLPTLRAVGDVLRDRFDGASRVLYGNRGSNRASRAELLRLEPEDPAHKPPSPHDLVYFEKSPNFCTYSGRLGTAGTAGRACNSSSPALDGCELLCCGRGHRTRTQRVTERCNCTFHWCCHVSCRNCTHTRVLHECL
B2: Wnt3A: WNT protein added to neural rosette stage cells (protein, UniProt P56704 19-352, looked up)
Protein Wnt-3a: SYPIWWSLAVGPQYSSLGSQPILCASIPGLVPKQLRFCRNYVEIMPSVAEGIKIGIQECQHQFRGRRWNCTTVHDSLAIFGPVLDKATRESAFVHAIASAGVAFAVTRSCAEGTAAICGCSSRHQGSPGKGWKWGGCSEDIEFGGMVSREFADARENRPDARSAMNRHNNEAGRQAIASHMHLKCKCHGLSGSCEVKTCWWSQPDFRAIGDFLKDKYDSASEMVVEKHRESRGWVETLRPRYTYFKVPTERDLVYYEASPNFCEPNPETGSFGTRDRTCNVSSHGIDGCDLLCCGRGHNARAERRREKCRCVFHWCCYVSCQECTRVYDVHTCK
B3: FGF8: caudalizing factor (R&D 50 ng/ml) (protein, UniProt P55075 23-233, looked up)
Fibroblast growth factor 8: QEGPGRGPALGRELASLFRAGREPQGVSQQHVREQSLVTDQLSRRLIRTYQLYSRTSGKHVQVLANKRINAMAEDGDPFAKLIVETDTFGSRVRVRGAETGLYICMNKKGKLIAKSNGKGKDCVFTEIVLENNYTALQNAKYEGWYMAFTRKGRPRKGSKTRQHQREVHFMKRLPRGHHTTEQSLRFEFLNYPPFTRSLRGSQRTWAPEPR

Experiments:
Type in all cases: cell-based, human
[1] = system: rosette-stage neural cells; experiment: Floor plate induction in stromal-feeder (MS5) derived / rosette-stage neural cells; settings: added to neural rosette stage cells
Method: (§1) For MS5 induction, established methods previously reported were used (Perrier et al., 2004). Feeder free neural induction was carried out as previously described (Chambers et al., 2009). Briefly, hESCs cultures were disaggregated using accutase for 20 minutes, washed using hESCs media and pre-plated on gelatin for 1 hour at 37° C. in the presence of ROCK inhibitor to remove MEFs. The nonadherent hESCs were washed and plated on matrigel at a density of 20,000 cells/cm2 on matrigel (BD) coated dishes in MEF conditioned hESCs media (CM) spiked with 10 ng/mL of FGF-2 and ROCK-inhibitor. The ROCK inhibitor was withdrawn, and hESCs were allowed to expand in CM for 3 days or until they were nearly confluent. The initial differentiation media conditions included knock out serum replacement (KSR) media with […] TGF-b inhibitor (SB431542, Tocris) and 500 ng/mL of Noggin (R&D). Upon day 5 of differentiation, increasing amounts of N2 media (25%, 50%, 75%) was added to the KSR media every two days while maintaining 500 ng/mL of Noggin and TGF-b inhibitor. For FP induction, Sonic C25II was added at 200 ng/ml.
hESC derived neural cells at the rosette stage were differentiated into both CNS and PNS progeny and patterned towards multiple cells fates along the A/P and D/V axis (Elkabetz et al., 2008). […] Specification of progenitor cells into FP tissue and cells during mouse development was thought to depend on SHH signaling within early neural lineages. The inventors tested whether rosette-stage neural cells were competent to undergo FP specification in response to SHH. High concentrations of SHH were needed to induce FP during mouse development (Roelink et al., 1994; Ericson et al., 1996). Recombinant N-terminal SHH has a limited activity range due to the lack of posttranslational modifications required for full SHH action. Recently, a modified version of recombinant SHH became available where SHH was tethered to two Isoleucines (Sonic C25II, R&D Systems), mimicking more closely the potency of mammalian SHH protein.
The majority of cells retained rosette cytoarchitecture and staining for the AN marker BF1 as described previously (FIG. 1A) (Elkabetz et al., 2008).
Based on the hypothesis that FP specification in the mouse occurs at early developmental stages, at the time of or prior to neural induction, the inventors repeated SHH induction studies at Day 9, the time of rosette specification, using classic stromal-feeder mediated neural induction protocols (Elkabetz et al., 2008). Under this paradigm the inventors noticed a drastic change in cell morphology restricted to the cells treated with SHH-C25II (FIG. 1B).

hESCs [2] = experiment: Floor plate induction in NSB protocol, FOXA2 immunostaining; settings: added early along FP differentiation; BIO 100 nM
Method: as §1
Tissue was fixed using 4% paraformaldehyde and Picric acid for 15 minutes, washed with PBS, permeablized using 0.3% Triton X in PBS, and blocked using 10% Donkey Serum. Primary antibodies used for microscopy included PAX6 (Covance), TUJ1 (Covance), ZO1 (Zymed), BF1 (FOXG1, gift E.Lai), TH (Pelfreez), NKX6.1 (DSHB) and FOXA2 (SantaCruz).
Using this protocol, in combination with compositions and methods of the present inventions, the inventors aimed to optimize FP differentiation by adding Sonic C25II at different time points during neural induction and assaying for FOXA2 expression. Differentiation was initiated upon NSB exposure, and Sonic C25II was added at Day 1, Day 3, Day 5, or Day 7 (FIG. 2A).

hESC = experiment: Real-Time PCR of pluripotency and germ layer markers in treated hESC
Method: Cells and Culture Conditions (dual SMAD and floor plate). hESCs (WA-09; passages 35-45) were cultured on mouse embryonic fibroblasts plated at 12-15,000 cells/cm2 (MEFs, Global Stem). A medium of DMEM/F12, 20% knockout serum replacement (GIBCO), 0.1 mM b-mercaptoethanol, 6 ng/mL FGF-2 was changed daily. Cells were passaged using 6 U/mL of dispase in hESCs media, washed and re-plated at a dilution of 1:5 to 1:10. Neural Induction (Dual SMAD). hESC cultures were disaggregated using accutase for 20 minutes, washed using hESC media and pre-plated on gelatin for 1 hour at 37° C. in the presence of ROCK inhibitor to remove MEFs. The nonadherent hESC were washed and plated on matrigel at a density of 10,000-25,000 cells/cm^2 on matrigel (BD) coated dishes in MEF conditioned hESC media (CM) spiked with 10 ng/mL of FGF-2 and ROCK-inhibitor. […] The ROCK inhibitor was withdrawn, and hESC were allowed to expand in CM for 3 days or until they were nearly confluent. The initial differentiation media conditions included knock out serum replacement (KSR) media with […] TGF-beta inhibitor (SB431542, Tocris) and 500 ng/mL of Noggin (R&D). Upon day 5 of differentiation, the TGF-b inhibitor was withdrawn and increasing amounts of N2 media (25%, 50%, 75%) was added to the KSR media every two days while maintaining 500 ng/mL of Noggin. For MS5 induction, established methods previously reported were used^18. Quantitative Real-Time (Dual SMAD). Total RNA was extracted using an RNeasy kit (Qiagen). For each sample, 1 ug of total RNA was treated for DNA contamination and reverse transcribed using the Quantitect RT kit (Qiagen). Amplified material was detected using Quantitect SYBR green probes and PCR kit (Qiagen) on a Mastercycler RealPlex2 (Eppendorf). Results were normalized to a HPRT control and are from 4-6 technical replicates of 2-3 independent biological samples at each data point. Neuronal Patterning and Differentiation (Dual SMAD). Dopaminergic patterning was initiated using BDNF, ascorbic acid, sonic hedgehog, and FGF8 in N2 media as previously reported^18, and maturation was performed in the presence of BDNF, ascorbic acid, GDNF, TGFb-1, and cyclic-AMP. Motor neuron patterning was performed using BDNF, ascorbic acid, sonic hedgehog, and retinoic acid in N2 media as previously reported^16. Microscopy, Antibodies, and Flow Cytometry (Dual SMAD). Tissue was fixed using 4% paraformaldehyde for 20 minutes, washed with PBS, permeablized using 0.5% Triton X in PBS, and blocked using 1% BSA in PBS. Primary antibodies used for microscopy included PAX6 (Covance), Oct4 (Biovision), AP2 (Novus Biologicals), GBX2 (Sigma), HNK1 (Sigma), HOXB4 (Developmental Studies Hybridoma Bank (DSHB)), Nestin (R&D), NKX6.1 (DSHB), OTX2 (gift), p75 (Advanced Target Systems.), PAX7 (DSHB), PLZF (Calbiochem), TUJ1 (Covance), ZO1 (Zymed), BF1 (FOXG1, gift Esseng Lai), TH (Sigma), HB9 (DSHB), ISL1 (DSHB). CD105-PE (eBioscience) was used for excluding MS5 stromal cells for flow cytometery on a FACS can (BD). Floor Plate: Neural Induction.

hESCs derived FP = experiment: SHH enhancer (SBE1/SBE2) LacZ constructs in hESC derived FP
Text: As mentioned above, studies had identified different enhancers that directed SHH expression to different A/P region along ventral axis (Jeong et al., 2008). […] In the absence of caudalizing factors (SHH C25II alone), LacZ expression was observed herein following transfection with the SBE2 but not the SBE1 enhancer supporting the hypothesis that hESC derived FP is anterior by default (FIG. 6C). In contrast SBE2 activity was abolished upon treatment with Wnt1 or FGF8 while SBE1 activity was induced under these conditions.

hESCs [3] = experiment: qRT-PCR of FP, AN and regional markers during FP induction
Method: as §1
Total RNA was extracted using an RNeasy kit (Qiagen). For each sample, 1 ug of total RNA was treated for DNA contamination and reverse transcribed using the Superscript III (Invitrogen). Amplified material was detected using Taqman probes and PCR mix (ABI) on a Mastercycler RealPlex2 (Eppendorf). All results were normalized to a HPRT control and are from 3 technical replicates of 3 independent biological samples at each data point.
FOXA2 is a key marker of FP development. However, FOXA2 is also highly expressed in the endoderm. To further characterize the hESC derived putative FP tissue, the inventors performed qRT-PCR analyses for candidate markers at Day 11. […] The inventors further characterized the nature of FOXA2+ putative FP cells using a panel of neural precursor, glial, neuronal and non-neural markers (FIG. 7). […] To distinguish FOXA2 expression in hESC derived FP versus endoderm tissue, the inventors differentiated hESCs to endoderm (D'Amour et al., 2005).
To gain further insight into the factors critical for human FP specification, high resolution temporal gene expression profiles of candidate markers were performed at 6 time points during the 11 day protocol.
The inventors contemplated the use of SIX6 as a putative marker of anterior FP identity. Thus SIX6 status of the hESC derived FP was used to mark respecification in response to known caudalizing agents such as FGF8, Wnt-1, and Retinoic Acid. Each of these caudalizing factors was added in combination with SHH and the resulting tissue was assessed for expression of the FP markers FOXA2 and NETRIN-1, the AN marker BF1, and putative anterior FP marker SIX6.

[4] = caudalizing factor added in combination with SHH

| Molecule | FP competency of neural rosette stage cells [1] | CDX2 expression (hESC) | SBE1 enhancer activity (LacZ) (hESCs derived FP) | SBE2 enhancer activity (LacZ) (hESCs derived FP) | SIX6 expression (hESCs [3]; [4]) | further results |
| --- | --- | --- | --- | --- | --- | --- |
| O=C1Nc2cc(Br)ccc2/C1=C1/Nc2ccccc2/C1=N\O [BIO, reference compound] | not sufficient to induced FP competency |  |  |  |  | FOXA2 expression (hESCs [2]): can increase FOXA2 expression |
| NC(=O)c1ccc(-c2nc(-c3ccc4c(c3)OCO4)c(-c3ccccn3)[nH]2)cc1 [SB431542, 4-[4-(1,3-benzodioxol-5-yl)-5-(2-pyridinyl)-1H-imidazol-2-yl]-benzamide] |  | dramatic increase |  |  |  | Brachyury expression (mesodermal lineage) (hESC): suppression of Brachyury; Nanog expression (hESC; hESC in KSR): rapid loss of Nanog expression; also recorded: most dramatic downregulation |
| Noggin |  | Suppression of CDX2 |  |  |  | SOX17 expression (endodermal lineage) (hESC): suppression of SOX17 |
| B1 | not sufficient to induced FP competency |  | induced | abolished | significant reduction in SIX6 expression | FP production based on FOXA2 and Netrin-1 expression (hESCs [3]; added in combination with SHH): significantly potentiated FP production; BF1 expression (hESCs [3]; [4]): dramatic reduction in BF1 expression; midbrain FP markers CORIN and NOV and DA progenitor markers LMX1B, EN1, NGN2 (hESCs [3]; qPCR): significant increase |
| B2 | not sufficient to induced FP competency |  |  |  |  |  |
| B3 |  |  | induced | abolished | significant reduction in SIX6 expression |  |

— US11560546B2, “Methods for neural conversion of human embryonic stem cells” (MEMORIAL SLOAN KETTERING CANCER CENTER, priority 2009, dated 2023)
